Experiments:
[1] = target: T1, Cadherin-17 protein (92 kDa) in lysates of colorectal cancer cell lines (human, UniProt Q12864 23-832); assay: Western blot of colorectal cancer cell line lysates, antibody diluted 1:500
T1 construct: Same natural protein as m15, here denatured on a Western blot (band at 92 kDa); also called CDH17
T1 sequence (looked up): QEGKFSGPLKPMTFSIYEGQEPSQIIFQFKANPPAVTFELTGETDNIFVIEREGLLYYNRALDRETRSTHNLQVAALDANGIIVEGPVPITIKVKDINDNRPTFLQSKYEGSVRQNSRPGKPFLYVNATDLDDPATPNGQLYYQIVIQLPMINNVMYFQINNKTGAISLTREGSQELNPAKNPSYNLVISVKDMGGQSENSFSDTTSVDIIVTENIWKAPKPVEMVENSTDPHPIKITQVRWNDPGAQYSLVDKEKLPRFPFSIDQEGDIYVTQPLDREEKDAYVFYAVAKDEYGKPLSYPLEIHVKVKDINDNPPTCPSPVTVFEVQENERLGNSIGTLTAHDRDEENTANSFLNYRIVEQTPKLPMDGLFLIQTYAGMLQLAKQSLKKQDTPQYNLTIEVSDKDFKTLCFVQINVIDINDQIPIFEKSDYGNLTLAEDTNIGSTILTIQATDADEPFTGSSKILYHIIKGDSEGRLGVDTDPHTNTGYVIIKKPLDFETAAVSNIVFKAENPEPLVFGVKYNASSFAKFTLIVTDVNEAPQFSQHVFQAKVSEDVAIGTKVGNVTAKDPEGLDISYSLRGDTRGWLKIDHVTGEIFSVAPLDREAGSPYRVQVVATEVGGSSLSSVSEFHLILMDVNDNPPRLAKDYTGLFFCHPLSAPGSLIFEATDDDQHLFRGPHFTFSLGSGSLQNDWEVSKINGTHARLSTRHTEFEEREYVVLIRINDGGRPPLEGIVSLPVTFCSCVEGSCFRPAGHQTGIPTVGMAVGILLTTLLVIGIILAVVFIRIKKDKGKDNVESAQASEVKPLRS
Description: Snap frozen cell pellets were lysed in modified RIPA buffer (50 mM Tris-HCl, pH 7.4, 1% NP-40, 0.25% Na-deoxycholate, 150 mM NaCl, 1 mM EDTA) containing protease inhibitors (Roche) and cleared by spinning down at 18,000 g for 15 min at 4 C. The 4×LDS sample loading buffer (Invitrogen Inc.) was added to the cleared lysate to a final concentration of 1×; sample was heated for 10 min at 70° C. and kept at −80° C. afterwards. Before loading on a gel samples were re-heated.
Membrane was incubated with animal-free blocker (Vector) and probed with anti-Cadherin-17 antibody in animal-free blocker at 1:500 dilution, at 4 C, for 14-18 h, rotating. The secondary was anti-mouse DyLight® 488 conjugate (Pierce).
A clear signal was detected at a size corresponding to the Cadherin-17 protein (92 kDa) in 11 of the 14 chosen colorectal cell lines for all 5 Cadherin-17 antibodies (PTA001_A3, PTA001_A4, PTA001_A6, PTA001_A8 and PTA001_A9). […] Cell lines were carefully selected for different genetic backgrounds relevant to the initiation and progression of CRC (RER+=replication error positive tumor phenotype; RER−=replication error deficient tumor phenotype; p53 wild type or mutant and APC wild type or mutant genotype).

[2] = target: T2, cell-surface human Cadherin-17 (human, UniProt Q12864 23-832); assay: flow cytometry (FACS) on LoVo cells, antibody titration 0.005-10 ug/ml
T2 construct: whole, on cells; Endogenous protein on cells; also called Liver-intestine cadherin; LI-cadherin
T2 sequence (looked up): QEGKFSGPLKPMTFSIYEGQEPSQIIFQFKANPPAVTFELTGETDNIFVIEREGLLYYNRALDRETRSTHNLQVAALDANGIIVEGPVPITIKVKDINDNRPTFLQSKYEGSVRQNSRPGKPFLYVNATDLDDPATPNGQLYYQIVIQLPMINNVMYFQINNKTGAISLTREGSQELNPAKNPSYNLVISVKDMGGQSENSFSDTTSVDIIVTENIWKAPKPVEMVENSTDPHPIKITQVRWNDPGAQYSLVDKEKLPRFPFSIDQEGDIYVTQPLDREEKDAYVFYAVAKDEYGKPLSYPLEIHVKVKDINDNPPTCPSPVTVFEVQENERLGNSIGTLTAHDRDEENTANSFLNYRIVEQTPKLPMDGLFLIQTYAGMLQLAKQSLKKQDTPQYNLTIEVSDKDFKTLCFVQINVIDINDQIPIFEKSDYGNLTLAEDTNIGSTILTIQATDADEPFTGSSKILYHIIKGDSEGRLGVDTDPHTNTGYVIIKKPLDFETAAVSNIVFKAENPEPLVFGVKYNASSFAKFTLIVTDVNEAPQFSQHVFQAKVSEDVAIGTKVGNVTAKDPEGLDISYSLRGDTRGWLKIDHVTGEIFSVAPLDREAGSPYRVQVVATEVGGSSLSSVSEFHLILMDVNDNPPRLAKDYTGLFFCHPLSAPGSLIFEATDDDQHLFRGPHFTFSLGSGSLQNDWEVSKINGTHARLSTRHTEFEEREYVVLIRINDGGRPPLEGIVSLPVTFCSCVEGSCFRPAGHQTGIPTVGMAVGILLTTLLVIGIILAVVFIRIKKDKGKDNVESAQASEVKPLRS

B1: PTA001_A4 monoclonal antibody (Fab, V domains shown)
VH: EVQLQQSVAELVKPGASVKMSCKVSGYTLTDHTIHWMKQRPEQGLEWIGYIYPRDGITGYNEKFKGKATLTADTSSSTAYMQLNSLTSEDSAVYFCARWGYSYRNYAYYYDYWGQGTTLTVSS
VL: DIVMSQSPSSLAVSVGEKVTMSCKSSQSLLHSSNQKNYLAWYQQKPGQSPKVLIYWASTRESGVPDRFTGSGSGTDFTLTITSVKSEDLAVYYCQQYYSYPWTFGGGTRLEIKR
B1: binds [1]; binds [2].

Source: patent US20160039933A1 (OXFORD BIOTHERAPEUTICS, published 2016)
